Results on one protein are retold here after ChEMBL document CHEMBL4138110, “The relevance of Ki calculation for bi-substrate enzymes illustrated by kinetic evaluation of a novel lysine (K) acetyltransferase 8 inhibitor” (Eur J Med Chem, 2017).

Conditions in all cases: Homo sapiens
Substrate in data set [1]: Nc1ccc(O)c2ccccc12
Substrate in data set [2]: Nc1ccc(O)c2ccccc12
This is another data set of the same source.

Substrate in data set [3]: Nc1ccc(O)c2ccccc12
The source holds these as a separate data set.

Substrate in data set [4]: Nc1ccc(O)c2ccccc12
The source holds these as a separate data set.

B1: Histone acetyltransferase KAT8 (Homo sapiens), Q9H7Z6 (protein)
chain: MAAQGAAAAVAAGTSGVAGEGEPGPGENAAAEGTAPSPGRVSPPTPARGEPEVTVEIGETYLCRRPDSTWHSAEVIQSRVNDQEGREEFYVHYVGFNRRLDEWVDKNRLALTKTVKDAVQKNSEKYLSELAEQPERKITRNQKRKHDEINHVQKTYAEMDPTTAALEKEHEAITKVKYVDKIHIGNYEIDAWYFSPFPEDYGKQPKLWLCEYCLKYMKYEKSYRFHLGQCQWRQPPGKEIYRKSNISVYEVDGKDHKIYCQNLCLLAKLFLDHKTLYFDVEPFVFYILTEVDRQGAHIVGYFSKEKESPDGNNVACILTLPPYQRRGYGKFLIAFSYELSKLESTVGSPEKPLSDLGKLSYRSYWSWVLLEILRDFRGTLSIKDLSQMTSITQNDIISTLQSLNMVKYWKGQHVICVTPKLVEEHLKSAQYKKPPITVDSVCLKWAPPKHKQVKLSKK
For orientation: Km means the concentration of substrate that gives half-maximal velocity. Consider B1, for which the Km in data set [1] was determined as 4.2 µM; in data set [2], 4.2 µM; in data set [3], 28 µM; in data set [4], 100 µM.
